assay: soluble on expression in E. coli; label from the status in PepcDB or PDB records

Row | Sequence | soluble on expression in E. coli
1 | MGSDKIHHHHHHMSVNETTNIKKNERSVLLPERHPNHELFICDVLEAIPKDDLASMEHPVFSLATKPDTRTLIYEHRDVKIQITPSVKGLATIFDKDLLIFCISQMIAKKNRGEPLSQNVRLHAYDLLIWTNRETSGDAYRRLIEAFERLRGTTIVTNIKADGEEITTGFGLIDSFKVVRHTATGRMSELEVRISDWMFKIIQGSQVLTLSRDYFRLRKPIERRIYEIARKHCGEQDEWRISIELLQKKTGASSHERAFKAMVRELVKCDHLPDYSVTLEDDMVIFYNRAGLSEKIPLTAFPQLNAETYNDARTVAPGYDVYYLEQEWRDMWVDTGMPLLHNPDKAFIAFCKSRAKRRPMGR | not soluble
2 | MSLKQADELRFNEDGLIPAIVQDAASKEVLTLAYMNKESYEKTLETKETWFYSRSRQALWHKGETSGNTQAVKGIRYDCDQDALLVLVEPSGPACHTGSYSCFTKEQTEEQAADRFGIMNELERVIAERQAEMPEGAYTTYLFREGVDKILKKVGEEASEVIIAAKNRDHEELKWEAADLLYHLLVLLREQSLPLDDVLDVLKKRHSEIEEEGHHHHHH | soluble
3 | MEENTKEMIVIDSVDRYNEIFGLETRHPLVSIIDLAKSTTWPTRAWFRYEVYALYLKNVKCGDIKYGRQYYDYQDGTIVCFAPGQITDLEMLPNIQPNAHGILFHPDLIRGTALGQEIKKYSFFSYETNEALHISEEERQTVMDCLQKITIELEHSIDKHSRRLICANIGLLLDYCMRFYERQFDTRNGVNKDIIVRFEHLLNEYFEGDAPQNQGLPSVKYFADKVFLSANYFGD | not soluble
4 | MLPSKEELLALLSKECELYASIPDSEQQKKRNKKHFINGLMTACRVVGISFEELNTIIEQMPKKPIFKDLDEQLSVPTYVRNRVDIKL | not soluble
5 | MGSDKIHHHHHHMKVLLTRPEGRNQQMADALTQLGIGYHLCPLLEITPSNTPPKASFFSADKLVFISANAVYFAANNLNNHFPMHCEYFAVGEATQMALAEYQVVSQSAPSSQQDSEGLLSLSQLQDVELQKITIVRGEGGRETLAQTLSERGANVDYWQVYQRSKPALDPKSVCQQWQDLGIDTLVLTSGEALANLMELVPKELFAWLRSCHMIVPSHRVQVQAISQGFHRVSNANGASTQAILTALAL | not soluble
6 | MGSDKIHHHHHHMIEIIPAIDIIDGKCVRLSQGDYDSKKVYNENPVEVAKEFEANGVRRLHVVDLDGAASHHVVNHRVLEQIATRTSLIVDFGGGVKSDEDLKIAFESGAQMVTGGSVAVKDPELFCHWLEVYGSEKIILGADVKEHKIAVNGWKDESACELFPFLEDYINKGIQKVICTDISCDGMLKGPSIDLYKEMLEKFPNLYLMASGGVSNVDDIIALNEAGVPGVIFGKALYEGHITLKDLRIFL | not soluble
7 | MAHHHHHHMNAVDAEYVEHHGVDNLIIPISVSEPKETKRGDYAYCVDVVVHTLLIKKCSRGHRLLEHLTEKLVTLSIEWIRSECGVQLLPRSCRIAGNPLYFDDTVDTPKSIASIIENAAELLQRKSNSSNSRKDEQDTIPDALNLRKAQVPESKQPLIREVISTPAIKKGFLVDGNARLYGPDGSSEGSSKAPDPLAHIPESLRERCRIIDTRNMEGLTASPAKTMKSVDKTANTHTSGTFVAPTSEPQGKDEANWARFSIERTGEKVIVRFLAPDSVSSLHDIDLSATKDTLEINGSVTQLPVPIVTDDVRAKFVKATRILVVTCLIDVS | not soluble
8 | MPPFMSGLRAVSSLLSCRNAISRKLVSRSGIPRGSFVSDQIRRFGSLSGVERCSSNWLMSNDDARVSFRRLPGSVSLLQRRHFLGCGDGEEGGGELSKIYEERRVLGYTPEQMFNVVAAVDLYHGFVPWCQRSEVLKEYPDGSFDAELEIGFKFLVESYISHVESERPKWIKTTARDTGLFDHLINLWQFKPGPIPGTCDLHFHVDFKFNSPLYRQVASMFFKEVASRLVGAFSDRCRLVYGPGVRVDENAYEQRA | soluble
9 | MKFEFRTLVLISLAVVVVLSGCSQSPSSGGVPEYSGSKVYSAPTLYSQLIGVPTEGVSVKAYTVENANAKDILSWYKEKLSDYEIVNEMSVVQMTTPQGSAEWGAILFKKGDKGVGIWAMSGSGVEGGGAVYFIVEGPIDKLTGESGEAGGAGEQLPASDQASGEEPVKRYPGSVMLSYYKDTSNPLEVSIGIDYGTEDSAEKVAHWYKQELQAEGWVLESESSDDSSIDLAFSRGKEYIDIYIIEPYEGFLTRKLTSTTGRRGCHLTTWSVERSRWRGIPAQLCWNT | not soluble
10 | HQRWHKKASVLIYGAGSSGRQLATALSQGPEYHAVAFIDDYKALQGQIIQGIPVYSPEEISHVVERKTVQKILLAIPSASRARRKQVLAKIDCLGIQVLTIPGMADIVEGKAKLEEFKDVGVEDLLGRDSVEPKPELMNADIAD | not soluble
11 | MTRIIASLSEVSAGYSALFCDLWGCLHDGKRPFAEAVEALRAFRARGGTVLLMTNAPRPKPSVVRQLESIGVPPDCYDEVTSSGDAAQYALVTGAVGRRVYHLGPQKDETFFTELSPDLQKVAATEAPIVRVPLEEAEGIVCTGLFDDLTETPEDYRATLLYAKTQGLKLLCANPDIVVDFGDKRIYCAGAIAEAYDAMGGQSLYFGKPHPPIYDLARRRLEALRPGVPADEILCVGDGIATDIRGAVAEGLDSLFITGGLAASVFGENGE | not soluble
12 | RRSPPADAIPKSKKVKVSHRSHSTEPGLVLTLGQGDVGQLGLGENVMERKKPALVSIPEDVVQAEAGGMHTVCLSKSGQVYSFGCNDEGALGRDTSVEGSEMVPGKVELQEKVVQVSAGDSHTAALTDDGRVFLWGSFRDNNGVIGLLEPMKKSMVPVQVQLDVPVVKVASGNDHLVMLTADGDLYTLGCGEQGQLGRVPELFANRGGRQGLERLLVPKCVMLKSRGSRGHVRFQDAFCGAYFTFAISHEGHVYGFGLSNYHQLGTPGTESCFIPQNLTSFKNSTKSWVGFSGGQHHTVCMDSEGKAYSLGRAEYGRLGLGEGAEEKSIPTLISRLPAVSSVACGASVGYAVTKDGRVFAWGMGTNYQLGTGQDEDAWSPVEMMGKQLENRVVLSVSSGGQHTVLLVKDKEQS | soluble
13 | MSLQNLSPTQREILLALTDLYNRQKRMIKSKEVADIIGKDEGTVRNIILSLKVLGLVESKPGPNGGYMPTLKAYEIINNPTLTPILDKLNLYKGMIETDIKVENIEIIDITNPSANRVLLKVEGDLRKLKIGDAVRLGPTPYSRLVIEGLILHLDENSKEIVVDVKRMISIPKEKVKNLISKKLIALKPETSLREASMIFYKEAIRGAPVINQDEKVVGILTTADIIKAFFEGNYTAKVSDYMKTNVISINENEDLLDAIRKMIIYNVGRLLVLDSNNKAVGIVTRTDILRSIAGLEGLWTTEGHHHHHH | soluble
14 | MGSDKIHHHHHHMAEKQYDFTHVPKRQGNSIKWGVLKEKELPMWIAEMDFKIAPEIMASMEEKLKVAAFGYESVPAEYYKAVADWEEIEHRARPKEDWCVFASGVVPAISAMVRQFTSPGDQILVQEPVYNMFYSVIEGNGRRVISSDLIYENSKYSVNWADLEEKLATPSVRMMVFCNPHNPIGYAWSEEEVKRIAELCAKHQVLLISDEIHGDLVLTDEDITPAFTVDWDAKNWVVSLISPSKTFNLAALHAACAIIPNPDLRARAEESFFLAGIGEPNLLAIPAAIAAYEEGHDWLRELKQVLRDNFAYAREFLAKEVPEVKVLDSNASYLAWVDISALGMNAEDFCKYLREKTGLIISAGNGYRGNGHEFVRINLACPKELVIDGMQRLKQGVLNLNN | not soluble
15 | MAHHHHHHMGGFGSKNMEYYNYASMKLLERDKYTNEKEEEEDDQYCKETDIREAVKKAREIRNCNYKESMDLYIKALKMLKKLKENNSRIYRNVLEFEIRPQEIASSAPLNTSLEKNIHMKKEGETNYTCAPPNDNQAISLNNKIASLYNEIADLCCIHDFIEKSLFYYDKACSYNPSKIDYIYKKGVLFQQMNDTERAINTFKIILSAEPNHIPTLFSLGNLYRYIDNHIALSYFEAILKIEPNNTEVLSLIASCYDNLGKLNEAISYQNKAVQIDPDNFNHKKFAQRLIEMKSQN | soluble

— the DeepSol protein solubility set
